Biological target: native human thyroglobulin (human) (UniProt P01266)
Assay: cryo-EM structure; hTG at 2 mg/mL in 25 mM Tris-HCl pH 7.5, 150 mM NaCl, sodium azide; plunge frozen; C2 symmetry imposed; composite map at 3.2 Å

Substance: native human thyroglobulin, P01266 20-2768
- stoichiometry N: 2

— PMC8748809
